Laboratory results from the supplement of paper PMC9112550, “Optimization of the antimicrobial peptide Bac7 by deep mutational scanning” (BMC Biology, 2022).

Tested on: Escherichia coli TOP10
Experiment: shrunken log2 fold change of peptide-encoding DNA abundance (4.5 h post-induction vs induction); higher = less antimicrobial activity (less host growth inhibition)
Settings: time post-induction: 4.5 h; library: site-saturation at positions 5, 18, 19, 20
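Note: peptides expressed intracellularly from a pBAD plasmid library in pooled LB shake-flask culture, induced with 0.3% L-arabinose, DNA abundance read by NGS, three biological replicates, DESeq2 with apeglm shrinkage.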

Point of comparison: RRIRARPPRLPRPRPRPDMKPRP, “shrunken log2 fold change” value -0.0184. Against it:
- RRIRARPPRLPRPRPRPAAHPRP — higher, 0.478
- RRIRARPPRLPRPRPRPAAMPRP — higher, 0.856
- RRIRARPPRLPRPRPRPACHPRP — higher, 0.371
- RRIRARPPRLPRPRPRPADTPRP — within 0.2 log units, 0.0859
- RRIRARPPRLPRPRPRPAELPRP — higher, 0.426
- RRIRARPPRLPRPRPRPAEWPRP — higher, 0.245
- RRIRARPPRLPRPRPRPAFYPRP — within 0.2 log units, 0.117
- RRIRARPPRLPRPRPRPAGYPRP — higher, 0.399
- RRIRARPPRLPRPRPRPAHEPRP — within 0.2 log units, 0.128
- RRIRARPPRLPRPRPRPAHKPRP — higher, 0.664
- RRIRARPPRLPRPRPRPAHLPRP — higher, 0.271
- RRIRARPPRLPRPRPRPAHMPRP — within 0.2 log units, -0.114
- RRIRARPPRLPRPRPRPAIRPRP — higher, 0.422
- RRIRARPPRLPRPRPRPALEPRP — higher, 1.19
- RRIRARPPRLPRPRPRPAMSPRP — higher, 0.43
- RRIRARPPRLPRPRPRPAMYPRP — within 0.2 log units, 0.0624
- RRIRARPPRLPRPRPRPAPFPRP — higher, 0.392
- RRIRARPPRLPRPRPRPAPRPRP — higher, 1.02
- RRIRARPPRLPRPRPRPARDPRP — higher, 0.298
- RRIRARPPRLPRPRPRPAREPRP — higher, 0.835
- RRIRARPPRLPRPRPRPARKPRP — higher, 0.898
- RRIRARPPRLPRPRPRPARSPRP — higher, 0.31
- RRIRARPPRLPRPRPRPASCPRP — higher, 0.295
- RRIRARPPRLPRPRPRPASIPRP — within 0.2 log units, 0.0775
- RRIRARPPRLPRPRPRPAVCPRP — higher, 0.442
- RRIRARPPRLPRPRPRPAWIPRP — within 0.2 log units, 0.116
- RRIRARPPRLPRPRPRPAYCPRP — within 0.2 log units, -0.00541
- RRIRARPPRLPRPRPRPCASPRP — within 0.2 log units, 0.158
- RRIRARPPRLPRPRPRPCCSPRP — within 0.2 log units, 0.0121
- RRIRARPPRLPRPRPRPCCWPRP — higher, 0.245
- RRIRARPPRLPRPRPRPCDLPRP — within 0.2 log units, 0.15
- RRIRARPPRLPRPRPRPCGHPRP — within 0.2 log units, 0.0628
- RRIRARPPRLPRPRPRPCGIPRP — higher, 0.23
- RRIRARPPRLPRPRPRPCHFPRP — within 0.2 log units, -0.0257
- RRIRARPPRLPRPRPRPCHMPRP — within 0.2 log units, -0.0816
- RRIRARPPRLPRPRPRPCHPPRP — higher, 0.194
- RRIRARPPRLPRPRPRPCIGPRP — within 0.2 log units, 0.0942
- RRIRARPPRLPRPRPRPCITPRP — within 0.2 log units, 0.178
- RRIRARPPRLPRPRPRPCLAPRP — higher, 0.328
- RRIRARPPRLPRPRPRPCNHPRP — within 0.2 log units, -0.177
- RRIRARPPRLPRPRPRPCNPPRP — within 0.2 log units, -0.0307
- RRIRARPPRLPRPRPRPCPAPRP — higher, 0.209
- RRIRARPPRLPRPRPRPCPSPRP — within 0.2 log units, 0.0639
- RRIRARPPRLPRPRPRPCQFPRP — within 0.2 log units, -0.0602
- RRIRARPPRLPRPRPRPCQSPRP — within 0.2 log units, -0.0122
- RRIRARPPRLPRPRPRPCQTPRP — within 0.2 log units, -0.0627
- RRIRARPPRLPRPRPRPCQYPRP — lower, -0.411
- RRIRARPPRLPRPRPRPCRPPRP — within 0.2 log units, -0.153
- RRIRARPPRLPRPRPRPCRWPRP — higher, 0.26
- RRIRARPPRLPRPRPRPCSAPRP — higher, 0.356
- RRIRARPPRLPRPRPRPCSMPRP — within 0.2 log units, 0.00269
- RRIRARPPRLPRPRPRPCTPPRP — within 0.2 log units, -0.0509
- RRIRARPPRLPRPRPRPCYNPRP — lower, -0.456
- RRIRARPPRLPRPRPRPDDFPRP — within 0.2 log units, -0.013
- RRIRARPPRLPRPRPRPDDHPRP — higher, 0.432
- RRIRARPPRLPRPRPRPDEEPRP — higher, 0.901
- RRIRARPPRLPRPRPRPDEGPRP — higher, 0.37
- RRIRARPPRLPRPRPRPDGFPRP — within 0.2 log units, 0.135
- RRIRARPPRLPRPRPRPDGLPRP — higher, 0.292
- RRIRARPPRLPRPRPRPDGMPRP — within 0.2 log units, -0.141
- RRIRARPPRLPRPRPRPDHDPRP — higher, 0.592
- RRIRARPPRLPRPRPRPDHSPRP — within 0.2 log units, 0.0675
- RRIRARPPRLPRPRPRPDIRPRP — within 0.2 log units, 0.148
- RRIRARPPRLPRPRPRPDKTPRP — within 0.2 log units, -0.00345
- RRIRARPPRLPRPRPRPDKWPRP — within 0.2 log units, -0.0676
- RRIRARPPRLPRPRPRPDMAPRP — higher, 0.265
- RRIRARPPRLPRPRPRPDMCPRP — lower, -0.335
- RRIRARPPRLPRPRPRPDPHPRP — higher, 0.373
- RRIRARPPRLPRPRPRPDQDPRP — higher, 0.605
- RRIRARPPRLPRPRPRPDSDPRP — within 0.2 log units, -0.0357
- RRIRARPPRLPRPRPRPDSGPRP — within 0.2 log units, 0.18
- RRIRARPPRLPRPRPRPDSRPRP — within 0.2 log units, 0.12
- RRIRARPPRLPRPRPRPDTRPRP — within 0.2 log units, 0.0596
- RRIRARPPRLPRPRPRPDVQPRP — higher, 0.474
- RRIRARPPRLPRPRPRPDVWPRP — higher, 0.342
- RRIRARPPRLPRPRPRPDWRPRP — within 0.2 log units, 0.146
- RRIRARPPRLPRPRPRPDYHPRP — lower, -0.879
- RRIRARPPRLPRPRPRPDYLPRP — lower, -0.805
- RRIRARPPRLPRPRPRPEALPRP — higher, 1.71
- RRIRARPPRLPRPRPRPEAQPRP — higher, 1.66
- RRIRARPPRLPRPRPRPECHPRP — higher, 1.38
- RRIRARPPRLPRPRPRPECQPRP — higher, 0.333
- RRIRARPPRLPRPRPRPEDAPRP — higher, 0.894
- RRIRARPPRLPRPRPRPEDGPRP — higher, 1.48
- RRIRARPPRLPRPRPRPEEKPRP — higher, 1.22
- RRIRARPPRLPRPRPRPEEMPRP — higher, 1.73
- RRIRARPPRLPRPRPRPEFWPRP — higher, 1.12
- RRIRARPPRLPRPRPRPEGLPRP — higher, 0.527
- RRIRARPPRLPRPRPRPEHHPRP — within 0.2 log units, 0.132
- RRIRARPPRLPRPRPRPEHMPRP — within 0.2 log units, 0.137
- RRIRARPPRLPRPRPRPEKEPRP — higher, 0.248
- RRIRARPPRLPRPRPRPEKYPRP — within 0.2 log units, 0.101
- RRIRARPPRLPRPRPRPELLPRP — higher, 0.961
- RRIRARPPRLPRPRPRPELTPRP — higher, 1.38
- RRIRARPPRLPRPRPRPEMPPRP — higher, 0.981
- RRIRARPPRLPRPRPRPEMWPRP — higher, 1.21
- RRIRARPPRLPRPRPRPENAPRP — higher, 0.687
- RRIRARPPRLPRPRPRPENFPRP — within 0.2 log units, 0.0336
- RRIRARPPRLPRPRPRPENKPRP — higher, 0.31
- RRIRARPPRLPRPRPRPENTPRP — higher, 0.397
- RRIRARPPRLPRPRPRPEVWPRP — higher, 1.43
- RRIRARPPRLPRPRPRPEYCPRP — higher, 0.409
- RRIRARPPRLPRPRPRPFADPRP — higher, 0.438
- RRIRARPPRLPRPRPRPFANPRP — within 0.2 log units, 0.0657
- RRIRARPPRLPRPRPRPFATPRP — higher, 0.66
- RRIRARPPRLPRPRPRPFDGPRP — lower, -0.22
- RRIRARPPRLPRPRPRPFEIPRP — within 0.2 log units, 0.083
- RRIRARPPRLPRPRPRPFERPRP — within 0.2 log units, -0.0075
